In the supplement of paper PMC10126150:
± gives the standard deviation of the averaged measurements.

Test system: ATP
Assay: switch fluorescence ratio, 500 uM ATP over buffer (Cy3 cluster intensity, sum of 5 cycles each) (fold (ratio)); higher = stronger signal-on switching upon ATP binding; sequences stand for … in TCGTCGGCAGCGTCAGATGTGTATAAGAGACAGTTTTTTTTTTTTTTTTTTTTTTTTT…TC
Conditions: aptamer strand: ATP DNA aptamer (quencher-CACCTGGGGGAGTATTGCGGAGGAAGG + anchor), 100 nM annealed; ATP concentration: 500 uM
In short: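 The quencher-labelled ATP aptamer, at 100 nM, was annealed to Cy3-labelled switching-strand clusters on a modified Illumina MiSeq flow-cell. The clusters were imaged in selection buffer, then after 15 min with 500 uM ATP at 22 °C, and this buffer/ATP cycle ran five times with NaOH stripping and re-annealing between runs. Per-cluster fluorescence ratios, summed target-cycle over summed buffer-cycle Cy3 intensity, were averaged per switch-domain sequence. Clusters outside 100-1000 RFU were excluded.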
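Further: ATP exposure 15 min at 22 °C before imaging.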

Row | Sequence | switch fluorescence ratio
1 | TGGGAAGGAT | 1.006 ± 0.0016
2 | CAGCTACGTC | 1.01 ± 0.04
3 | GCCATGCGTC | 1.01 ± 0.026
4 | TTTGCATGTA | 1.02 ± 0.027
5 | AAAAAGCTGG | 1.03 ± 0.038
6 | GGTATTACGT | 0.972 ± 0.032
7 | GTTCAAGGGC | 0.996 ± 0.032
8 | TGAAGAAGTG | 0.994 ± 0.022
9 | TCTTAGTTAG | 0.9878 ± 0.0059
10 | GTTTTATGTA | 1.025 ± 0.0069
11 | GATCGCCCCG | 1 ± 0.02
12 | TGTCGTTTTC | 0.98 ± 0.03
13 | TTTTTGCTTA | 0.993 ± 0.013
14 | AGCTTTATTA | 0.9984 ± 0.0032
15 | GACTGAGGTA | 0.99 ± 0.031
16 | ACTGTTTTAT | 1.01 ± 0.038
17 | GGGGATTTAG | 0.971 ± 0.027
18 | GGTGTTATGC | 1.01 ± 0.015
19 | GGGAGGACTT | 0.977 ± 0.029
20 | TTTCGAGTTG | 0.9809 ± 0.0029
21 | AAAGGGTGGG | 1.01 ± 0.013
22 | AGGGGGCCAG | 1 ± 0.019
23 | TGGTATGGGG | 1.03 ± 0.087
24 | CACTCTCAGC | 1.04 ± 0.012
25 | GGCTTTGGGG | 0.975 ± 0.04

Row | Sequence | switch fluorescence ratio
26 | GGTTACTTTA | 1.07 ± 0.064
27 | CGATTTTCAT | 0.988 ± 0.013
28 | TGCTGGGGTG | 1.04 ± 0.1
29 | CGGGGTGAAT | 1.022 ± 0.0052
30 | GTTGAGGGTA | 1 ± 0.034
31 | AAGGGGGGTA | 0.997 ± 0.037
32 | GGTATGAGAC | 1.01 ± 0.044
33 | AAAATAATTG | 1.03 ± 0.025
34 | AAGTCAGCGA | 1.02 ± 0.014
35 | TGGGTACAGT | 1.03 ± 0.05
36 | ACAAATGGCA | 1.07 ± 0.037
37 | TGTGTGAGGT | 1.06 ± 0.027
38 | TTAAAAAAAT | 1.73 ± 1.4
39 | TTTTTTCGCG | 1 ± 0.016
40 | AGTTATTGTG | 1.04 ± 0.094
41 | GGTGCTAAGG | 1.02 ± 0.021
42 | TACAAAAGGT | 1.07 ± 0.094
43 | GAGCTGCAGT | 0.947 ± 0.047
44 | TGAACCTTCA | 2.71 ± 0.14
45 | GGGATTCTTA | 0.996 ± 0.021
46 | TACGAGTTTT | 0.996 ± 0.01
47 | TATGTGAGTT | 1.001 ± 0.0099
48 | CTGGTATACG | 1.06 ± 0.055
49 | GTAATAGTGT | 0.981 ± 0.018
50 | GGTTCGGGAA | 0.9965 ± 0.0022

Row | Sequence | switch fluorescence ratio
51 | GCGAGTTTGC | 1.02 ± 0.017
52 | GGGGGTTTGA | 1 ± 0.022
53 | GTTTATATCC | 1.02 ± 0.013
54 | GTTGGCGGGC | 0.997 ± 0.036
55 | TGAAGTATAG | 0.9901 ± 0.005
56 | TCAGTTTTCT | 1.01 ± 0.057
57 | GGACGTGTTG | 0.983 ± 0.033
58 | AGAAGCCCAC | 1.09 ± 0.019
59 | GAAGTCTGGG | 0.9767 ± 0.0021
60 | CGCATCAAGT | 1.01 ± 0.031
61 | CAATGAGAGA | 0.9792 ± 0.0083
62 | CGAGGGGAAC | 2.81 ± 2.5
63 | CAAGCAGGCA | 0.9935 ± 0.0067
64 | GTTGGAATGT | 1.03 ± 0.018
65 | ATTTGAGTGC | 0.966 ± 0.002
66 | ATAAAACGC | 1.04 ± 0.071
67 | CGTGGGTGGG | 1.01 ± 0.036
68 | GGATCTTTGA | 0.989 ± 0.027
69 | CACTCTGTGT | 1.02 ± 0.026
70 | GCATTTGAAA | 0.978 ± 0.011
71 | AGGAAGGTTT | 0.993 ± 0.041
72 | GTGGACTTCG | 1.0178 ± 0.001
73 | CATCGTGTTA | 1.01 ± 0.022
74 | GATTTAGAAT | 1.01 ± 0.012
75 | GAGATGGTAG | 0.976 ± 0.0069

Row | Sequence | switch fluorescence ratio
76 | CTTGGGATTT | 0.98 ± 0.013
77 | AATGAAGTTT | 1.43 ± 0.7
78 | GCAAGGAGCG | 1.03 ± 0.039
79 | GAACACGGCG | 1 ± 0.05
80 | GTGTGGATTC | 0.998 ± 0.013
81 | TAGTGGAGTG | 1 ± 0.011
82 | CGAGACAGGG | 1 ± 0.036
83 | GGTTGTAGTT | 0.963 ± 0.016
84 | GTTTAGTC | 0.976 ± 0.025
85 | GCTGTTTTTA | 0.981 ± 0.022
86 | GCGTATTTGC | 1.033 ± 0.01
87 | TGGTGGTTGT | 1.02 ± 0.012
88 | CGAGCGTAGG | 1.01 ± 0.043
89 | TAATTTTGCG | 1 ± 0.015
90 | GGGATTTTGT | 0.983 ± 0.012
91 | TAGTGGTGGA | 0.9979 ± 0.009
92 | TAAAAGTTTT | 1.01 ± 0.011
93 | ATCGGGGGGA | 0.986 ± 0.034
94 | GGGTCAATAT | 1.13 ± 0.032
95 | AGGCCTCAGG | 0.99 ± 0.022
96 | ACGTCGGTAC | 3 ± 0.49
97 | AGCATGGTTG | 1.01 ± 0.026
98 | GTAACCGGTA | 1.02 ± 0.024
99 | CGTGTTACGG | 0.994 ± 0.046
100 | GGGTCAGGGG | 1.09 ± 0.077

Row | Sequence | switch fluorescence ratio
101 | TGGTAAAATT | 1.031 ± 0.01
102 | CGTAACATGG | 1.022 ± 0.0099
103 | TTATGTTTAA | 0.999 ± 0.025
104 | ACTGGCAGTT | 1.01 ± 0.037
105 | TTGGTGAGGT | 0.99 ± 0.041
106 | CAGACGGGTC | 1 ± 0.041
107 | ATATAAGCCC | 1.02 ± 0.021
108 | GAATTTTTGG | 0.997 ± 0.017
109 | GATTTTGACG | 1.04 ± 0.067
110 | CGGTGGGTTA | 0.985 ± 0.025
111 | TGGGGTACTA | 0.975 ± 0.069
112 | TGCTCGGGAC | 1.09 ± 0.047
113 | GGGGAAGTGC | 1.01 ± 0.055
114 | GGAATCCGTA | 1.05 ± 0.046
115 | GGGATAATTG | 0.978 ± 0.024
116 | AGTCGACTGT | 0.956 ± 0.02
117 | TGGGGTCGTC | 1.038 ± 0.0087
118 | TCCGGACCTC | 1.5 ± 0.34
119 | TTACCCCGAA | 1.026 ± 0.0067
120 | CCACGCCTGT | 1.09 ± 0.022
121 | CTGGTAATTT | 1.02 ± 0.079
122 | ATGGGGTCGA | 1 ± 0.051
123 | AGCATATAGG | 1.009 ± 0.0059
124 | TTGCCTCGTT | 1.05 ± 0.023
125 | TGTTGAAAGG | 0.995 ± 0.046

Row | Sequence | switch fluorescence ratio
126 | TGGGTAATTG | 1.01 ± 0.019
127 | ACATATCTTT | 1.025 ± 0.0012
128 | GGTCCGTCGT | 1.02 ± 0.038
129 | ATTCCGGGGA | 1.23 ± 0.29
130 | AGGGAGGTTT | 0.944 ± 0.073
131 | TTGGGTTAGC | 1.03 ± 0.037
132 | AATCAGGAAG | 1.02 ± 0.035
133 | AAGTCCGTTG | 1.009 ± 0.0083
134 | GGGGAGCGAG | 1.02 ± 0.046
135 | CGATCCGGGC | 1.05 ± 0.043
136 | GCGGGATTAT | 1.012 ± 0.0057
137 | GACAGGTATC | 1.01 ± 0.057
138 | AAGAAAAATT | 0.9725 ± 0.0048
139 | GGGGTAAAGC | 1 ± 0.018
140 | GTTTAAGGGT | 0.996 ± 0.055
141 | TTTGGTGGAA | 1.01 ± 0.044
142 | TGTTTTTAAT | 0.99 ± 0.025
143 | CAAACGGGGT | 1.01 ± 0.024
144 | GCAGGGGGGC | 1.03 ± 0.035
145 | CTAAAGCGCG | 1.07 ± 0.034
146 | TATTAATAA | 1 ± 0.0029
147 | TTAAGAGGGG | 0.975 ± 0.042
148 | AATCGATCGG | 1.01 ± 0.028
149 | ATTAGGTGGG | 1.05 ± 0.068
150 | AACGGGGGCT | 0.9778 ± 0.006

Row | Sequence | switch fluorescence ratio
151 | GGCATTATAG | 0.999 ± 0.0097
152 | GTTACTGTTC | 0.98 ± 0.13
153 | GCATTTGGCC | 0.999 ± 0.012
154 | AGGGGTTACG | 0.981 ± 0.044
155 | AAGTACTCCA | 1.335 ± 0.0082
156 | ATGGATAGTC | 0.986 ± 0.044
157 | GAGAGCTGCG | 1 ± 0.039
158 | CATCGGAGGG | 1.02 ± 0.029
159 | AATGATTCTT | 0.98 ± 0.016
160 | CTTGGCAGGG | 0.99 ± 0.02
161 | GACATTAGTC | 0.99 ± 0.011
162 | GGTGTTCATG | 0.974 ± 0.024
163 | GTTTTAGTGG | 0.9867 ± 0.0089
164 | GGGGCTAGAT | 1.034 ± 0.0076
165 | CGCGTTCGGA | 1.04 ± 0.015
166 | GAGTTACTTT | 1.02 ± 0.023
167 | GATTATATCT | 0.981 ± 0.033
168 | GTCACCTTGA | 1.01 ± 0.014
169 | TGGGATCAAG | 1 ± 0.032
170 | GAGATAGCTT | 0.955 ± 0.043
171 | GGTTCGTATA | 1.01 ± 0.017
172 | GGGATAAAGA | 1.001 ± 0.003
173 | AACGAATTAC | 1.79 ± 0.16
174 | CGGGTGCACT | 0.98 ± 0.027
175 | TTTCAGGATG | 0.963 ± 0.017

Row | Sequence | switch fluorescence ratio
176 | TAAAATGCGT | 0.99954 ± 0.00034
177 | GCTGGATCCG | 1.07 ± 0.11
178 | GAGGTGAGGG | 1 ± 0.057
179 | GGCGCATAGG | 1.11 ± 0.02
180 | CCTATGGTAG | 1.014 ± 0.0099
181 | GGGGGGGCGG | 1 ± 0.024
182 | TTTACAAGTA | 1.031 ± 0.0049
183 | TGTTAATAGT | 0.981 ± 0.015
184 | GTTGTGATCT | 0.989 ± 0.015
185 | TACTCGAGGG | 1.08 ± 0.031
186 | TCGTGGTCTG | 0.999 ± 0.036
187 | TGGGGGGCTT | 0.989 ± 0.023
188 | CGGGACCGGC | 1.04 ± 0.13
189 | GAACTCTGGG | 0.9899 ± 0.006
190 | AGTCTAAATA | 1.02 ± 0.02
191 | CGCTCTAAAA | 1.01 ± 0.011
192 | GTTAGTAGGA | 1.02 ± 0.019
193 | TATGCAGGGA | 1.16 ± 0.29
194 | GCCGGGTATG | 1.02 ± 0.022
195 | TTGCATGGGC | 1.05 ± 0.063
196 | ATAAACGGCT | 1.01 ± 0.021
197 | GGTGGTTTGG | 1.023 ± 0.0045
198 | GGATCGTTGA | 0.977 ± 0.019
199 | ACGTTTTGAG | 1.0122 ± 0.00047
200 | GGCGGCATGG | 1.04 ± 0.023
